The record followed here is patent US20160208003A1 (AFFITECH RESEARCH, published 2016).

Assay [1] addresses T1, human CC chemokine receptor 4 (CCR4) (human, UniProt P51679 1-360).
T1 construct: whole, on cells; Always presented on cells; also called CD194; human CCR4
T1 sequence (looked up): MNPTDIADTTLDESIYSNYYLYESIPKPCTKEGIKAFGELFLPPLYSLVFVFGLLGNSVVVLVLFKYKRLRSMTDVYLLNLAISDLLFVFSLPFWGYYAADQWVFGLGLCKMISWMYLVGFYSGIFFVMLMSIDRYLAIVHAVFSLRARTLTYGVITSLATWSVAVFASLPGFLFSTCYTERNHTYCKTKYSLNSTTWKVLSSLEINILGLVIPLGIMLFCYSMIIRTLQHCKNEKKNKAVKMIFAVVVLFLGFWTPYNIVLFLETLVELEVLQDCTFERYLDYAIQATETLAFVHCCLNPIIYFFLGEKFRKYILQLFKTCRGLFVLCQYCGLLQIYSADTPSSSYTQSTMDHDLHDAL
Briefly: flow cytometry, IgG titration on CCRF-CEM cells, anti-human-PE, MFI.

Assay [2] addresses T1, human CC chemokine receptor 4 (CCR4). Nature of the assay: cell-based or functional assay.
Assay [3] has as its target T2, mouse CCR4 (mouse, UniProt P51680 1-360).
T2 construct: whole, on cells; also called murine CCR4
T2 sequence (looked up): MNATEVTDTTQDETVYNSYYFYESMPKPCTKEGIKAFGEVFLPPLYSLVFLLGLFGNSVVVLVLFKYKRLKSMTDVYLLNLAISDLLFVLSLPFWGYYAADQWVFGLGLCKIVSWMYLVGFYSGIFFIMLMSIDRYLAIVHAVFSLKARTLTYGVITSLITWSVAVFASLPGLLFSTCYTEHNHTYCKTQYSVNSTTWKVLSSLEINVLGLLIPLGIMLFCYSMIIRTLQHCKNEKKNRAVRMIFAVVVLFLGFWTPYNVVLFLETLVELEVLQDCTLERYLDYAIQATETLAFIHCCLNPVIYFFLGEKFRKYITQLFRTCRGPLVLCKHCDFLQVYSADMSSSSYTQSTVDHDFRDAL
Nature of the assay: flow cytometry on HEK-293T/17 cells transiently transfected with mouse CCR4, anti-human-IgG-PE detection. The method, then: For transient transfection, Hek293T/17 cells were seeded as 2×10^6 cells in a T75 (NUNC) flask. 48 h after seeding, the cells were transfected with Fugene (ROCHE). 40 μl Fugene and 16 μg DNA are used per T75. The cells were used for assays 48 h after transfection.
HEK-293T/17 cells, were transiently transfected either with pcDNA3.1 plasmid encoding human CCR4 or with pLNO plasmids (Norderhaug et al, 1997) encoding either mouse (GeneBank CAA62372) or monkey (Macaca mulatta) CCR4 (PubMed access number XP_001098807) using Fugene (Roche) as a transfection reagent. Non-transfected (CCR4 negative) cells served as a negative control. The cells were cultivated further for 48 hours under regular conditions described above. The cells were washed twice with PBS, detached from the culture flasks by incubating with Accutase (PAA laboratories, Linz, Austria) for 3 minutes at room temperature. The cells were then washed 2 times with PBS (400×g, 5 min, 4° C.) and resuspended in PBS containing 0.2% BSA and 0.09% NaN₃. 1×10⁵ cells per well were aliquoted into V-shaped 96-well plates (Griner Bio-One, Frikenhausen, Germany). Cells were centrifuged (400×g, 5 min, 4° C.) and resuspended in 50 μl of 10 μg/ml 9E or 9E10J, in PBS containing 0.2% BSA and 0.09% NaN3. The cells were incubated further at 4° C. for 60 min. The samples were then washed twice by centrifugation and re-suspension in 100 μl FACS buffer. […]
For orientation: In flow cytometry, cells or beads pass a laser one at a time.

The target of assay [4] is T1, human CC chemokine receptor 4 (CCR4). Nature of the assay: flow cytometry competition on CCRF-CEM cells; unlabelled IgG titrated, competitor 0.7 nM biotinylated IgG 9E. The method, then:
Further competition experiments were carried out to assess whether or not the test antibodies recognise the same or overlapping epitopes, and to determine their relative affinities for CCR4. Antibodies 9E10J, 9E and KM3060var were tested using labelled 9E as a competitor.
DT40 and CCRF-CEM cells were cultivated as described in Example 2. The cells were harvested from culture flasks, washed 2 times with PBS (400×g, 5 min, 4° C.) and resuspended in PBS containing 0.2% BSA and 0.09% NaN3. 1×10^5 cells per well were aliquoted into V-shaped 96-well plates (Griner Bio-One, Frikenhausen, Germany). Cells were centrifuged (400×g, 5 min, 4° C.) and resuspended in 50 μl IgG 9E10J or KM3060var (dilution series starting at 5 μg/ml) mixed with biotinylated competitor antibody 9E (0.1 or 0.5 μg/ml). The cells were incubated for 2 hours at 4° C., mixing with a pipette every 45 min. The cells were washed three times with 150 μl PBS with 0.2% BSA and 0.09% NaN3 and stained with 3 μg/ml streptavidin PE (BD Biosciences) for 45 minutes at 4° C. Cells were washed, resuspended in 200 μl PBS with 0.2% BSA and 0.09% NaN3, and transferred to a U-shaped 96 well Costar (Corning, Schiphol-Rijik, The Netherlands) plate for flow cytometry using an FACS Canto II flow cytometer (BD Biosciences, Heidelberg, Germany).

B1: 9E10J IgG (full length human IgG1, lambda) (antibody, V domains shown)
VH: QVQLVQSGAEVKKPGSSVKVSCKASGGTFSSYAISWVRQAPGQGLEWMGGIIPIFGTANYAQKFQGRVTMTRDTSTSTVYMELSSLRSEDTAVYYCARRGGSYFDYWGQGTLVTVSS
VL: SYVLTQPPSASGTPGQSVTISCSGSTSNIGSHYVFWYQQLPGTAPRLLIYRNHQRPSGVPDRLSGSKSGTSASLAISGLRSEDEADYYCAVWDDTLSGWVFGGGTKLTVLG
notes: also called IgG 9E10J; unmodified 9E10J
For orientation: EC50 (read off the curve) means the concentration needed to bring the measured effect to its halfway point. Broadly, the IC50 is the point on the concentration scale where inhibition reaches its midpoint. Turning to B1, the 50% effective concentration (EC50 (read off the curve)) in assay [1] was around 0.1 nM. Besides, in assay [2], the “ADCC of CCRF-CEM cells, EC50 (mean, N=5)” value was 0.0247 mg/L. In addition, in assay [3], the binding result is “no binding (tested: 10 µg/ml)”. The molecule also returned a half-inhibitory concentration (IC50) in assay [4] of 0.07 nM.

B2: 9E IgG (full length human IgG1, lambda) (antibody, V domains shown)
VH: QVQLVQSGAEVKKPGSSVKVSCKASGGTFSNYAISWVRQAPGQGLEWMGGIIPIFGTANYAQKFQGRVTITADESTSTAYMELSSLRSEDTAVYYCARRGGSYFDYWGQGTLVTVSS
VL: SYVLTQPPSASGTPGQSVTISCSGSTSNIGSHYVFWYQQLPGTAPRLLIYRNHQRPSGVPDRLSGSKSGTSASLAISGLRSEDEADYYCAVWDDTLSGWVFGGGTKLTVLG
notes: also called IgG 9E; IgG1 9E
As for B2, the half-maximal effective concentration (EC50 (read off the curve)) in assay [1] is around 0.3 nM. In addition, the “ADCC of CCRF-CEM cells, EC50 (mean, N=2)” value in assay [2] is 0.186 mg/L. Further, the binding result in assay [3] was “no binding (tested: 10 µg/ml)”. The half-inhibitory concentration (IC50) in assay [4] stood at 0.38 nM.
